The values that follow come from patent US20140120082A1.

A value given as a limit tells only on which side of the number the result lay.

One assay deals with 8.3 TcR. Put plainly: tetramer staining of 8.3 TcR-transgenic NOD CD8+ T cells, flow cytometry.
Assay [1] addresses human NKG2D (human) (UniProt P26718). Put plainly: cell-based or functional assay.
Assay [2] shares this target. Put plainly: flow cytometry on NKL cells stained on ice with biotinylated mAb, APC-streptavidin before culture (0 h).
Assay [3] has the same target. Put plainly: flow cytometry on NKL cells stained on ice with biotinylated mAb, APC-streptavidin after 16 h of culture at 37° C. (In general: In flow cytometry, cells or beads pass a laser one at a time.)

Sequence of UniProt P26718 (P26718 whole entry T72A): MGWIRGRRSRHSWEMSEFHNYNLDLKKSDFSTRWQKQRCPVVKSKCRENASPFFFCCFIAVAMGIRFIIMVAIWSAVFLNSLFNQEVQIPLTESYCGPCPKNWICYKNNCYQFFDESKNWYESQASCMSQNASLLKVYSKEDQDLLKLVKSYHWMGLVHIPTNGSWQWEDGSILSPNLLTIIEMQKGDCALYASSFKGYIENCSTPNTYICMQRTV

Regarding “NRP-V7/H-2K^d tetramer (from UniProt P01902 22-305) (peptide-MHC)”, in the assay with 8.3 TcR, the percent of donor CD8+ T cells tetramer positive is > 90%.

As for “mouse anti-human NKG2D mAb (R&D Systems clone 149810) (antibody)”, the decrease in expression of NKG2D on the cell surface in the assay with human NKG2D (human) [1] stood at 67%. For the same substance, the mean fluorescence intensity (arbitrary units) is 186 in the assay with human NKG2D (human) [2] and 61 with human NKG2D (human) [3].
